We go through 1 molecule from publication PMC5811608, “Structure of prothrombin in the closed form reveals new details on the mechanism of activation” (Scientific Reports, 2018).

The test has as its target Human recombinant prethrombin-2 (human). Nature of the test: SPR; Biacore S200; prethrombin-2 amine-coupled (NHS/EDC) to a CM5 chip, 1633 RU; fragment-1 injected, two-fold dilutions 7.4-119 uM, single-cycle kinetics, 35 ul/min; 20 mM HEPES, 150 mM NaCl, 5 mM CaCl2, pH 7.4; referenced to an unmodified CM5 surface. The note with it: both partners purified. On the technique in general: Surface plasmon resonance follows binding to a sensor surface in real time, without labels.

Bounds are passed on as bounds.

B1: fragment-1 of prothrombin (domain or fragment)
chain: ANTFLEEVRKGNLERECVEETCSYEEAFEALESSTATDVFWAKYTACETARTPRDKLAACLEGNCAEGLGTNYRGHVNITRSGIECQLWRSRYPHKPEINSTTHPGADLQENFCRNPDSSTTGPWCYTTDPTVRRQECSIPVCGQDQVTVAMTPR
modifications: purchased fragment-1 (presumably plasma-derived): Gla domain gamma-carboxyglutamates, N-glycans and disulfides expected; 5 mM CaCl2 in assay. Mature numbering + 43 = precursor; ends at cleavage site …
Regarding B1, the Kd – broadly, the equilibrium constant for the complex coming apart – was greater than 200 µM.
